# Results: the supplement of paper PMC12042874
# ± gives the uncertainty stated by the source.
# Test: amyloid nucleation score (Sup35N fusion, yeast selection) (log enrichment); library NNK3; higher = more nucleation; inactive = no reads after selection
# How it was run: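 Output and input plasmid inserts were sequenced by Illumina after psi-negative yeast carrying Sup35N fused to peptides of 20 random codons had been induced 24 hours with 100 μM copper sulfate and grown 7 days at 30°C on medium lacking adenine and uracil. The nucleation score is the DiMSum log enrichment of output over input reads, centred on the mode score of non-aggregating sequences. Sequences with under 100 input reads were excluded.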
row,Substance,amyloid nucleation score
1,SIGPVCIRTQSRPQITLRMM,inactive
2,WYWSSNPSGTDVGIDGVRIS,inactive
3,CDFIDVS,inactive
4,NSNLDSSVYSVILYGLGVWM,1.18 ± 0.094
5,GKMLRWMKH,inactive
6,DCWYHMPHQIWH,inactive
7,KVLVFGFQCFIL,1.56 ± 0.08
8,TESCVDSMVAFHNLPYLFRL,inactive
9,FNWMPMGEKSAWAVRVRSAC,inactive
10,GCIKGVICLTHC,inactive
11,ERFNPDEVCE,inactive
12,VVILHCKTYAMASRWYGYRG,-0.003 ± 0.81
13,PRLRHVICHGRFWNPMIQVG,0.971 ± 0.19
14,NGDMKARTFHTRDFKFGVPR,inactive
15,AFSDGTLSLTSKVRLGDS,inactive
16,SSNLNRFSITVFVVERHHQF,inactive
17,SVRYVETYSHRTNTVDAAFV,inactive
18,GFIVSRERLNVMVLFSVYW,inactive
19,RHLMYPNRNMMVWSSFSDLG,inactive
20,ESRVPRSIKDSL,inactive
21,VSGFERVHGKGSN,inactive
22,NVYIVFFNFKTQ,2.34 ± 0.058
23,MDEVWFPSKGCDLAVRNCLM,inactive

row,Substance,amyloid nucleation score
1,LRTLSGNICANL,inactive
2,DIPAVINVMGSVYDGR,inactive
3,IMMIDWWYMFGCYACLETCH,inactive
4,CKTGPEDTC,inactive
5,TPRQFSDGCISFNKVTINPQ,0.704 ± 0.34
6,VAKHNAR,inactive
7,WSKHVCLFENSKSPHFSEDS,inactive
8,FYIFNWGFFGIKWYLIWNEI,inactive
9,SRSAY,inactive
10,LNFRSV,inactive
11,VLYGTSASWSEFEFDHVIHV,inactive
12,RYSRSKIG,inactive
13,YLSGKLFTRAP,inactive
14,NRGSYVFMNRSEPVCSWISK,1.09 ± 0.1
15,TYYNHIRLVYLIGAKRWEEL,inactive
16,RRVSHLFLRTCCPSWTYYHL,inactive
17,LWIIKGYKSYSNHQWNWGM,inactive
18,FGSCSEVFSYVAYLRGINDF,inactive
19,NPRNMTPSLVFTDWLS,inactive
20,TSDIAPFRDLLIASA,inactive
21,LWTYIWDRFEDPVECLRWWN,inactive
22,LQKGGNITCTVNHFMWVFAH,0.592 ± 0.32
23,EKECRTWHHVDGSLVESCYY,inactive

row,Substance,amyloid nucleation score
1,ITVVQANMSVWSTARVDMLD,1.12 ± 0.16
2,YLGRFNSKFMTSVLIMYYP,inactive
3,SFRYAYWLSNNCH,0.378 ± 0.4
4,TFYVLGLDYTWLSATSGDGS,inactive
5,YTSGLVNFVVMDPGL,inactive
6,VHFLILETFKQNMWGYDLTL,inactive
7,VLMGRCLPRWLLYEELLVYV,inactive
8,GIFVGPSVDSLLKLRARSHY,inactive
9,LRGILSIVLVCGENYIKHCG,inactive
10,HLIMNSDLGAATNIFMNPVA,inactive
11,IRHVHLSRYSTRTDGNNQLD,inactive
12,LLMLTEQ,inactive
13,TDFPYK,-0.12 ± 0.53
14,RSVVLLAMMSGYRDISIFRT,inactive
15,NKKDHAYKWISVD,inactive
16,RKHLDLT,inactive
17,CLVHEVPWRQMGSDLNKAAS,inactive
18,FYVNINFSELVSVDTISSFI,0.208 ± 0.31
19,GNLWT,0.637 ± 0.12
20,ACAFS,inactive
21,SLILENLFVSFLTSKIILGF,inactive
22,LQYLVNLLMQWVLRKIVQKV,inactive
23,ECATTVGNAFRRSGVQVFAM,inactive

row,Substance,amyloid nucleation score
1,WVCMVNSRRSCIRNS,0.381 ± 0.75
2,LSVMDGTSYAGCELKNVEGW,inactive
3,CLWRRCMPSHPMVEVSRLIW,inactive
4,FYFMPNFV,inactive
5,KRGNSANPS,inactive
6,YCCIFRRFNGKNFFSCRG,inactive
7,KRYLGLMQRDVWISDAKLSA,inactive
8,HQVNVLWQVYILAFSLTSRH,inactive
9,GGKAISNFEFLLILGPY,inactive
10,YGILLFGVSWWWAVSFFENF,inactive
11,VWVLSA,inactive
12,SCASAFKKVLVCSNCSGRFS,-0.133 ± 0.66
13,FYFNYFIRMCNITCDI,2.73 ± 0.05
14,VLGVEECGYWLD,inactive
15,LPICGAD,inactive
16,WEGYT,inactive
17,IWRLLGSWVSVTMDIYHWSS,inactive
18,RLVRSMAFYNHVIYL,0.012 ± 0.28
19,VGYTNLVFGDLLLFCMFNWD,0.109 ± 0.45
20,LWINCSWMFNWM,2.43 ± 0.07
21,RFLYRYG,inactive
22,LLFLNFTICCYSFRKGMHGF,-0.344 ± 0.32
23,ASQDI,inactive

row,Substance,amyloid nucleation score
1,SSNYNLKTLNSISRFFDLES,inactive
2,IKSPLDFFNVYVMVLGNWQI,inactive
3,WGLGAINIDMRRRLDPRCKR,0.312 ± 0.32
4,CYRSISRRDPS,inactive
5,NSFIVVIYYRVRSYRYTD,inactive
6,HYADRTAWPSACASLYSHAL,inactive
7,FWFLYSSRAQRRRRHWI,inactive
8,DLILWFPL,inactive
9,FGSLRCFGWLAWSICVNMYY,inactive
10,TISLHFLGTADKPYLSWVAN,inactive
11,MAQIRATIFMMMSANVDRYM,inactive
12,NGRWRRFLWKNGCMELYRTG,1.52 ± 0.085
13,KVLASCLSHFVDPNLEVSFH,inactive
14,HAVYL,inactive
15,IINFSYANAVVIVWLNISMG,1.08 ± 0.16
16,ECEWDMVH,inactive
17,GSKYMQRHLNTI,inactive
18,YRYNNLKRCGNSAQWLAISS,-0.08 ± 0.34
19,LSWDVYSRHFG,2.31 ± 0.076
20,MRVYFMWATTWLA,inactive
21,LMNKKCNPGDKTLQIYIRRG,inactive
22,PGRMRVVTVMKMWLTALSLK,inactive
23,YSAAYEIIIFICQCCNLKVG,inactive

row,Substance,amyloid nucleation score
1,FWDTKFEFFQLHRVWIPLLV,inactive
2,RCIVSRLTWGTILISFLQNR,inactive
3,GNWQCFTEGRTPCYFCCITT,inactive
4,MTPGFCLPK,inactive
5,SLLWSLSTYNVRIIHMM,inactive
6,VFTWILSDSHTSMWFRCQGG,inactive
7,TLYRGDKTRNFAMGIKLCMT,inactive
8,NAENFYV,inactive
9,PRHWFREFMGMVMI,0.317 ± 0.51
10,DFGCKSINCFLNATQ,inactive
11,LNPVRSYSKNNIYLLTMLAL,inactive
12,GSIDFSSSCECIGDWHHRGY,inactive
13,VCIPYMVVVFISSIP,1.72 ± 0.11
14,PRLHRECNEGEVGL,0.206 ± 0.81
15,LGSLVLLRFWY,-0.181 ± 1.4
16,PRVIHWSLALNSSHCNFVFF,2.67 ± 0.073
17,LCCFCCDPHLR,2.64 ± 0.061
18,TYVVMGFRCETFRIHNGLRR,inactive
19,PLVDPLGELYAATFCSGEYC,inactive
20,QVFHFGCSEDARCVCRVHM,inactive
21,WGSRHKIVCELGLPFYVLEG,inactive
22,GVVSCHSFSRRRKALRGYSS,inactive
23,SSSTKGFVNVDKSLASW,inactive

row,Substance,amyloid nucleation score
1,TIGFIGWWGVFYDTDWLRI,-0.566 ± 1.4
2,ILVLDSWYVACTTACKGTNK,-1.57 ± 2.5
3,TLTYTKYYHFNCNRTLYESV,0.665 ± 0.16
4,LDNDSWTRGLRGYLTYLRER,inactive
5,KFGCSYTNYSITSPDNPSC,inactive
6,LIISFKYCFPWKVVSTSVYN,1.17 ± 0.17
7,RYCNASY,inactive
8,LVMKQRLIMLYVKLNKAFLA,inactive
9,FIIIVDYSFMPGSRVCMFSW,inactive
10,VNNPVLFFQ,inactive
11,NNFMYPELAPSARRCAWYCG,inactive
12,RIIAGWTYRSSQIWYFRDPH,inactive
13,CVFRWMLFSASEYDGRILKW,inactive
14,ANVLKFIWAFVWASVALLWS,inactive
15,QYSHPQRIIFSF,-0.249 ± 0.43
16,IRQVLCCESLRLGSYMQINT,inactive
17,VTGMFDSSLRRKMKVPVWAI,inactive
18,LSLMSSVGCRCSVFSWLYVN,inactive
19,QHMSRYYVFLLNCIQCIMNG,1.58 ± 0.12
20,SEPLYSVVLSDMDELWHCL,inactive
21,RMYPHE,inactive
22,YGETAMRRSLTSLYNHMSLN,inactive
